Reference: the supplement of paper PMC10567573

B1: MYBL2 (parent)
chain: FPNRTDQQCQYRWLRVLNPDLVKG

Variants of: B1
Experiment: protein stability index of a GFP-peptide fusion (GPS, HEK-293T) (PSI 1-6); higher = more stable
Settings: c terminus: a fixed tail appended
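Also: lentivirally expressed fusions sorted by FACS into six bins by GFP to DsRed ratio, PSI derived from sequencing read proportions per bin multiplied by bin number.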

Protein stability index: each site, then its substitutions
V16: A 1.87, N 2.05, G 2.12, W 2.57, I 1.57, K 2.02, T 2.13, E 2.44, R 1.56, F 1.81, S 2.2, H 2.39, Q 2.46, Y 1.72, P 2.72, C 1.97, D 2.99, M 1.78, L 1.77
Q7: G 2.96, W 2.29, V 1.85, S 1.82, E 2.15, H 2.05, P 2.17, Y 1.61, A 2.53, D 2.3, R 2.63, M 1.96, C 1.94, F 1.67, N 2.38, I 2.07, T 1.72, K 1.8, L 1.69
N18: W 2.05, C 2.8, F 2.73, K 1.68, A 2.17, R 3.02, T 2.19, V 1.61, L 2.74, S 2.17, D 2.09, M 1.75, P 1.98, E 2.16, Y 2.16, I 1.09, Q 1.97, G 1.6
W13: D 2.98, A 2.59, K 3.05, F 2.75, M 2.27, N 2.81, G 3.56, V 2.39, E 3.26, Y 2.26, S 3.03, C 2.01, T 2.52, L 2.08, P 3.71, I 1.91, H 2.56, Q 3.1
L14: F 1.51, E 2.28, H 2.67, W 1.4, A 3.17, G 1.48, K 2.88, T 1.64, S 2.35, Y 1.83, D 2.22, R 2.44, C 2.02, V 2.21, P 2.05, N 2.46, I 2.03, Q 2.08, M 2.12
L17: S 2.78, F 1.41, D 1.91, P 2.56, Q 2.45, E 2.32, G 2.45, A 2.41, T 1.63, K 2.47, N 2.28, I 2.01, H 1.6, C 1.79, M 1.95, V 2.04, R 2.28, Y 1.34
Y11: A 2.16, E 3.11, V 2.02, Q 1.85, I 2.04, K 2.23, L 2.1, S 2.11, W 1.66, F 1.95, P 2.13, C 2.29, R 1.97, N 2.39, G 2.31, M 2.12, T 2.36, D 2.91, H 2.24
D6: P 1.81, T 1.84, I 2.07, H 1.94, Q 2.91, M 1.27, Y 1.61, R 1.41, L 1.97, A 1.7, K 2.06, C 1.45, G 1.51, S 1.89, E 1.61, N 1.8, F 2.36, W 1.75, V 1.98
D20: A 2.13, C 1.83, F 1.68, E 2.03, G 1.6
R12: A 2.75, P 1.96, D 1.19, N 1.69, C 2.55, M 1.96, F 2.25, S 2.25, E 1.74, W 1.95, G 1.59, L 1.45, I 1.97, Q 2.21, Y 2.46, H 3.76, T 1.66, K 2.25
Q10: T 1.93, F 1.75, M 1.47, R 1.52, N 1.76, E 2.23, V 1.81, L 2.34, C 2.83, Y 1.79, D 2.04, S 2.48, P 2.18, K 1.88, W 2.4, A 1.45, H 2.35, G 1.48, I 1.79
P19: V 1.94, K 2.36, T 1.67, E 1.85, M 2.2, W 1.63, L 1.76, A 1.81, R 1.84, G 2.26, H 2.22, S 2.06, N 2.01, C 2.5, D 1.97, F 1.45, Y 2.02, I 2.11, Q 1.94
C9: V 2.05, W 2.51, I 2.16, F 2.38, L 2.26, H 2.88, A 2, M 2.45, Q 2.24, T 2.9, K 2.76, P 2.5, Y 2.49, R 2.85, G 1.97, S 2.45, N 2.18, E 1.86, D 2.19
Q8: A 1.38, W 1.97, N 2, L 1.68, C 1.42, V 2.05, F 1.71, M 1.83, Y 1.88, G 1.34, R 1.96, P 2.09, E 2.01, S 1.83, I 2.01, T 1.82, D 2.09, K 1.97, H 2.37
R4: A 1.99, G 1.74, I 1.56, C 1.51, L 2.65, H 2.47, Y 1.98, M 2.2, W 2.23, K 2.11, D 2.27, N 1.94, V 1.96, P 2.64, F 2.22, Q 2.19, T 2.02, S 1.95, E 2.51
T5: Y 1.95, F 1.49, C 1.57, A 2.73, R 1.73, W 2, L 1.64, D 1.98, V 1.8, S 1.86, H 1.74, Q 1.76, I 2.29, E 2.29, M 2.33, K 2.29, G 1.53, P 2.05, N 2.01
P2: S 2.3, R 2.49, N 2.06, Y 2.2, L 2.62, W 1.61, T 1.81, V 3.52, Q 1.93, M 1.63
R15: N 1.52, D 2.48, M 1, H 2.31, K 1.31, V 2.2, G 2.18, A 1.45, C 2.19, S 2, Y 2.14, I 2.25, Q 2.15, L 1.98, P 1.92, W 2.96, T 1.45, F 2.36, E 2.44
N3: Q 2.04, P 1.93, R 2.1, L 1.94, F 1.63, S 1.78, D 1.83, T 1.91, G 1.77, E 1.96, M 1.72, W 1.31, K 1.77, C 1.56, V 1.91, H 1.98, I 1.82, A 2.27, Y 1.87
